Columns and labels:
Assay in all cases: cell-based or functional assay
[1] = target: HIV Env, isolate 2768732_C5_16 (HIV)
[2] = target: HIV Env, isolate CT184_D3.15 (HIV)
[3] = target: HIV Env, isolate Ce1172_H1 (HIV)
[4] = target: HIV Env, isolate 20258279_V2 (HIV)
[5] = target: HIV Env, isolate 20883229_C9_H6 (HIV)
[6] = target: HIV Env, isolate ZM106F.PB9 (HIV)
[7] = target: HIV Env, isolate CA146_H3_3 (HIV)
[8] = target: HIV Env, isolate CA240_A5.5 (HIV)
[9] = target: HIV Env, isolate 933.v4.c4 (HIV)

B1: ePGDM9 (antibody, V domains shown)
VH: QAQLVQSGPEVRKPGTSVKVSCKNPGNTLTTYDLHWVRQVPGQGLQWMGWISHEGDKKVIVERFKAKVTIDWDRSTNTAYLQLSGLTSEDTAVYYCAKGSKHRLRDYALYDEDGALNWAVDVDYLANLEFWGQGTAVTVSS
VL: DIVLTQSPLSLSVTPGESASISCKSSQSLIHGDRNNYLAWYVQKPGRSPQLLIDLASERASGVPDRFSGSGSRKDFTLKISRVETEDVGTYYCMQGRESPWTFGQGTKVDIK
- IC50 [1]: 0.016 µg/mL
- IC80 [1]: 0.114 µg/mL
- IC50 [2]: < 0.0006 µg/mL
- IC80 [2]: 0.002 µg/mL
- IC50 [3]: 0.007 µg/mL
- IC80 [3]: 0.02 µg/mL
- IC50 [4]: > 50 µg/mL
- IC80 [4]: > 50 µg/mL
- IC50 [5]: > 50 µg/mL
- IC80 [5]: > 50 µg/mL
- IC50 [6]: 0.007 µg/mL
- IC80 [6]: 0.024 µg/mL
- IC50 [7]: > 50 µg/mL
- IC80 [7]: > 50 µg/mL
- IC50 [8]: > 50 µg/mL
- IC80 [8]: > 50 µg/mL
- IC50 [9]: > 50 µg/mL
- IC80 [9]: > 50 µg/mL

Reference: patent US20230134571A1 (INTERNATIONAL AIDS VACCINE INITIATIVE, published 2023)
